± gives the standard deviation of the averaged measurements.
System: ATP
Experiment: switch fluorescence ratio, 500 uM ATP over buffer (Cy3 cluster intensity, sum of 5 cycles each) (fold (ratio)); higher = stronger signal-on switching upon ATP binding; sequences stand for … in TCGTCGGCAGCGTCAGATGTGTATAAGAGACAGTTTTTTTTTTTTTTTTTTTTTTTTT…TC
Conditions: aptamer strand: ATP DNA aptamer (quencher-CACCTGGGGGAGTATTGCGGAGGAAGG + anchor), 100 nM annealed; ATP concentration: 500 uM
Summary of the method: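 Between each of five buffer/ATP cycles, the flow-cell was stripped with NaOH and re-annealed. Each cycle imaged Cy3-labelled switching-strand clusters, annealed to 100 nM quencher-labelled ATP aptamer on a modified Illumina MiSeq flow-cell, first in selection buffer and then after 15 min with 500 uM ATP at 22 °C. The fluorescence ratio is summed target-cycle over summed buffer-cycle Cy3 intensity per cluster, averaged per switch-domain sequence, with clusters outside 100-1000 RFU excluded.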
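Note: ATP exposure 15 min at 22 °C before imaging.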

Sequence | switch fluorescence ratio
AATGGTCTCG | 0.9842 ± 0.006
AATGGTGAGG | 1.05 ± 0.051
AATGGTGGCC | 1 ± 0.018
AATGGTGTGG | 0.995 ± 0.014
AATGGTTTTT | 0.991 ± 0.031
AATGTAAGGA | 1.03 ± 0.065
AATGTAAGTT | 0.975 ± 0.025
AATGTAGGGA | 1.06 ± 0.051
AATGTAGTTT | 0.993 ± 0.032
AATGTCGGGC | 1.02 ± 0.022
AATGTCTCAG | 1.014 ± 0.0091
AATGTCTGGG | 0.9982 ± 0.0018
AATGTGAATG | 0.992 ± 0.021
AATGTGACAT | 0.982 ± 0.033
AATGTGAGCT | 1.04 ± 0.043
AATGTGCAGT | 0.9627 ± 0.0043
AATGTGTTGG | 0.984 ± 0.025
AATGTTAGGA | 0.974 ± 0.017
AATGTTGGGA | 0.995 ± 0.015
AATGTTGGTG | 0.998 ± 0.018
AATGTTTGTA | 0.9936 ± 0.0094
AATTAAAAAT | 0.987 ± 0.017
AATTAACGGC | 1.07 ± 0.083
AATTAAGGCA | 0.9756 ± 0.0065
AATTAATATT | 0.988 ± 0.021

Sequence | switch fluorescence ratio
AATTACCTCG | 1.04 ± 0.043
AATTAGACGA | 0.958 ± 0.034
AATTAGATTT | 1.021 ± 0.0055
AATTAGGGGT | 1.01 ± 0.02
AATTAGTGTG | 0.987 ± 0.022
AATTAGTTGC | 0.989 ± 0.016
AATTATAATG | 1.034 ± 0.0047
AATTATCGGC | 0.998 ± 0.049
AATTATGTAA | 0.988 ± 0.036
AATTATTGTA | 0.979 ± 0.049
AATTCAGCAT | 1.03 ± 0.036
AATTCCCTTT | 0.9946 ± 0.0012
AATTCCTCAG | 1.43 ± 0.1
AATTCCTCAT | 1.04 ± 0.024
AATTCCTTGG | 0.984 ± 0.034
AATTCTCTGT | 1.03 ± 0.066
AATTGAACGG | 0.9995 ± 0.0042
AATTGAAGGG | 0.996 ± 0.015
AATTGACGTA | 1.021 ± 0.0069
AATTGAGTGG | 1.009 ± 0.0077
AATTGATAGG | 0.982 ± 0.041
AATTGGAGGG | 1 ± 0.029
AATTGGCTTA | 0.997 ± 0.027
AATTGGGCGA | 0.989 ± 0.026
AATTGGGCGC | 1.01 ± 0.011

Sequence | switch fluorescence ratio
AATTGGGGGT | 0.992 ± 0.038
AATTGGGTAT | 1.0014 ± 0.00066
AATTGGGTGC | 1.09 ± 0.12
AATTGGTCGT | 0.965 ± 0.043
AATTGTAAGA | 0.992 ± 0.025
AATTGTAGGT | 0.9731 ± 0.0046
AATTGTAGTA | 0.996 ± 0.051
AATTGTTCGT | 0.98 ± 0.036
AATTGTTGTC | 0.985 ± 0.01
AATTTCGCTT | 1 ± 0.037
AATTTCTGGG | 1.06 ± 0.058
AATTTGACCC | 0.9966 ± 0.0026
AATTTGATTC | 1.02 ± 0.058
AATTTGGTTT | 1.02 ± 0.021
AATTTGTAGG | 1 ± 0.02
AATTTGTGTT | 0.992 ± 0.01
AATTTTAACA | 1 ± 0.016
AATTTTACGG | 1.07 ± 0.024
AATTTTAGTA | 1.02 ± 0.019
AATTTTAGTC | 0.994 ± 0.04
AATTTTCAGA | 1.03 ± 0.019
AATTTTGGTG | 0.998 ± 0.047
AATTTTTAGT | 0.981 ± 0.024
AATTTTTCGC | 0.98 ± 0.024
AATTTTTGAG | 0.988 ± 0.024

Sequence | switch fluorescence ratio
AATTTTTGTT | 1 ± 0.029
ACAAATTGTT | 1.09 ± 0.069
ACAACCAGGA | 1.737 ± 0.00071
ACAACCGGGG | 1.37 ± 0.029
ACAACGCGT | 0.982 ± 0.013
ACAAGACTTA | 1.04 ± 0.018
ACAAGATCGG | 1.0072 ± 0.00016
ACAAGGGAAG | 0.988 ± 0.015
ACAAGTGGAC | 1.033 ± 0.0026
ACAAGTGTGC | 1.04 ± 0.018
ACAAGTTTAA | 0.997 ± 0.025
ACAATAATAT | 1 ± 0.028
ACAATCTCTT | 1.02 ± 0.025
ACAATGCTTT | 1.03 ± 0.017
ACAATTGATG | 1 ± 0.04
ACACAGGCTA | 1.027 ± 0.005
ACACAGTGCT | 1 ± 0.011
ACACTTAAGT | 1.02 ± 0.029
ACACTTGCCA | 1.09 ± 0.019
ACAGAAATGG | 1.014 ± 0.0011
ACAGACCTAA | 1.14 ± 0.013
ACAGACTCGC | 1.01 ± 0.019
ACAGACTGAA | 1.16 ± 0.019
ACAGATACAG | 1.07 ± 0.025
ACAGATGGAA | 1.005 ± 0.0068

Sequence | switch fluorescence ratio
ACAGATGGGG | 1.01 ± 0.015
ACAGATTAGT | 1 ± 0.024
ACAGCAGGGC | 1.07 ± 0.07
ACAGCTGTTA | 1.02 ± 0.019
ACAGGACTTA | 1.09 ± 0.021
ACAGGAGGGG | 1.04 ± 0.018
ACAGGATACA | 1.14 ± 0.078
ACAGGGAGGG | 1.02 ± 0.015
ACAGGGGCGG | 1.008 ± 0.006
ACAGGGGGAA | 1.01 ± 0.024
ACAGGGGTGT | 1.09 ± 0.014
ACAGGTACAT | 1.12 ± 0.034
ACAGTACTTG | 1.292 ± 0.0098
ACAGTACTTT | 1.26 ± 0.019
ACAGTAGTAG | 1.07 ± 0.026
ACAGTGTGTT | 0.979 ± 0.018
ACAGTTAATA | 1.06 ± 0.018
ACAGTTATTC | 1.02 ± 0.048
ACAGTTGGGT | 1.002 ± 0.0047
ACATAAAAGG | 0.994 ± 0.021
ACATACATTG | 1.27 ± 0.061
ACATAGGTCA | 1.02 ± 0.022
ACATAGGTGA | 1.1 ± 0.069
ACATAGTTTG | 0.9892 ± 0.0034
ACATATAGAG | 1.051 ± 0.0097

Sequence | switch fluorescence ratio
ACATCGGATG | 0.995 ± 0.025
ACATCGGGAT | 1.017 ± 0.0012
ACATCGGTTC | 1.02 ± 0.029
ACATCTATTC | 1.01 ± 0.034
ACATGACAGA | 1.08 ± 0.038
ACATGACATG | 1.04 ± 0.03
ACATGAGAAA | 0.988 ± 0.052
ACATGCTGTA | 0.995 ± 0.024
ACATGGGGA | 1.002 ± 0.0018
ACATGGGGTT | 0.998 ± 0.03
ACATGTAGCG | 0.99 ± 0.021
ACATGTGGCA | 1.04 ± 0.018
ACATTAACTA | 1.09 ± 0.019
ACATTCATCG | 1.06 ± 0.034
ACATTCCTGT | 1.05 ± 0.046
ACATTCTGGA | 0.988 ± 0.031
ACATTGAGGT | 1.01 ± 0.048
ACATTGTTTT | 1.02 ± 0.021
ACATTTATCT | 1.02 ± 0.02
ACATTTATGG | 0.999 ± 0.021
ACATTTGGGT | 1.0104 ± 0.00044
ACATTTTTAT | 1.03 ± 0.015
ACATTTTTTT | 1.01 ± 0.029
ACCAAACCGG | 1.039 ± 0.0079
ACCAAAGGCG | 1.04 ± 0.043

Sequence | switch fluorescence ratio
ACCAACCGTG | 1.1028 ± 0.00051
ACCACGTGAC | 1.51 ± 0.035
ACCAGCGAAT | 1.06 ± 0.043
ACCAGCTTTT | 1.04 ± 0.03
ACCAGGTGTG | 3.53 ± 0.34
ACCAGTAGGT | 1.01 ± 0.035
ACCATACTGT | 1.33 ± 0.055
ACCATATTTG | 1.04 ± 0.058
ACCATATTTT | 1.073 ± 0.0094
ACCATCCGGC | 1.12 ± 0.012
ACCATTACAC | 1.24 ± 0.024
ACCATTAGCA | 0.998 ± 0.022
ACCCAAGATT | 1.01 ± 0.017
ACCCAGAAGG | 1.08 ± 0.043
ACCCATCTGT | 0.979 ± 0.013
ACCCATGCGA | 1.13 ± 0.036
ACCCATTGTA | 1.064 ± 0.0071
ACCCCATGCG | 1.22 ± 0.037
ACCCCGGTAA | 1.87 ± 1.2
ACCCGGGGCA | 1.05 ± 0.054
ACCCGTACAT | 1.11 ± 0.022
ACCCGTTTTG | 1.01 ± 0.025
ACCCTGGACA | 1.01 ± 0.019
ACCGAGCAAG | 4.12 ± 0.19
ACCGAGGCAT | 3.81 ± 1.5

Sequence | switch fluorescence ratio
ACCGAGGGGG | 1.02 ± 0.041
ACCGCGGGCG | 1.069 ± 0.0053
ACCGCTTACG | 1.56 ± 0.12
ACCGGCGAGG | 1.01 ± 0.036
ACCGGGGCTC | 1.05 ± 0.052
ACCGGGGGAG | 0.984 ± 0.02
ACCGGGGTGT | 1.17 ± 0.14
ACCGGGTTGG | 0.999 ± 0.01
ACCGGTCTAT | 1.031 ± 0.00046
ACCGGTGCTT | 1.04 ± 0.032
ACCGGTTACA | 1.03 ± 0.042
ACCGGTTTTT | 1.04 ± 0.045
ACCGTAGCTT | 2.61 ± 0.14
ACCGTCAGGT | 1 ± 0.085
ACCTACAAGG | 0.99429 ± 0.00094
ACCTAGCGAT | 1.57 ± 0.03
ACCTCATTTG | 1.067 ± 0.0049
ACCTCGTTTT | 0.9879 ± 0.0062
ACCTGATATA | 1.03 ± 0.021
ACCTGATCGT | 1.087 ± 0.0051
ACCTGATTAT | 1.02 ± 0.02
ACCTGCAATG | 2.43 ± 0.2
ACCTGCATGG | 1.05 ± 0.11
ACCTGCTAAC | 1.59 ± 0.024
ACCTGGACCT | 1.33 ± 0.032

Reference: the supplement of paper PMC10126150
